Patent publication US20090022687A1, “Novel Pharmaceuticals That Use Anti-HLA Antibodies” (Chugai Seiyaku Kabushiki Kaisha, priority 2005, published 2009)

Tested on: patient-derived MM cells
Test: Cytotoxicity assay (Trypan Blue dye exclusion), patient-derived primary MM cells
Assay type: cell-based, human
Conditions: newly isolated MM cells, in the presence of a secondary antibody
Procedure: […] Cell viabilities were determined by WST-8 assays or Trypan Blue exclusion assays. […] (B) The morphological observations of myeloma cells after 2D7-DB treatment are shown. Purified MM cells derived from patient No. 18 were cultured for 24 hours in the presence (1 μg/mL) or absence of 2D7-DB. Next, cells were fixed on glass slides and stained with light Giemsa (original magnification,×1000). (C) A graph indicating the cytotoxic activity of 2D7-DB on the patients' MM cells is shown. CD138-positive MM cells were purified from six patients, and the cells were cultured for 24 hours with 2D7-DB (0.1 or 1μg/mL). Cell viabilities were determined by Trypan Blue exclusion assays.
Patients' MM cells were prepared as follows. First clinical disease stage classification and diagnosis of MM patients were performed according to the Durie and Salmon classification (Durie, B. CT, and S. E. Salmon. 1975. “A clinical staging system for multiple myeloma. Correlation of measured myeloma cell mass with presenting clinical features, response to treatment, and survival,” Cancer, 36:842-854). […]
Cytotoxicity assays were performed as follows. […] Cell viabilities were measured by WST-8 assays (Kishida Chemical, Osaka, Japan) for the cell lines, and by Trypan Blue dye exclusion assays for patient-derived primary MM cells. […]

B1: 2D7: monoclonal antibody obtained by immunizing human myeloma cells; recognizes HLA class I (HLA-A) (antibody, V domains shown)
VH: QVQLQQSGPELVKPGASVKMSCKASGYTFTDYFIHWVKQRPGQGLEWIGWIFPGDDTTDYNEKFRGKTTLTADKSSSTAYILLSSLTSEDSAMYFCVRSDDFDYWGQGTTLTVSS
VL: QIVLTQSPAIMSASPGEKVTITCSASSSVSYMHWFQQKPGTFPKLWIYSTSNLASGVPTRFSGSGSGTSYSLTISRMEAEDAATYYCQQRTSYPPTFGSGTKLEIK
  cell viability: inhibited
